Assay results as given in paper PMC2943563.

Target: myc-tagged murine CARD11 L225LI (murine) (UniProt Q8CIS0)
Test: co-IP

fold increase in apparent oligomerization against wild-type CARD11: 3 fold
Substance: myc-tagged murine CARD11 L225LI (from UniProt Q8CIS0 1-1159) (natural protein)
